# Reference: US20240327505A1 (published 2024)
# B1: AB-009273 (antibody, V domains shown)
# VH: QVQLVQSGAEVKKPGSSVKVSCKASGGTFSSYAISWVRQAPGQGLEWMGGIIPIFGTANYAQKFQGRVTITTDESTSTAYMELSSLRSEDTAVYYCARVGVYDSSGYYFDYWGQGTLVTVSS
# VL: EIVLTQSPATLSLSPGERATLSCRASQSVSSYLAWYQQKPGQAPRLLIYDASNRATGIPARFSGSGSGTDFTLTISSLEPEDFAVYYCQQRSNWPPRLTFGGGTKVEIK
# B2: AB-010020 (antibody, V domains shown)
# VH: QMQLVQSGPEVKKPGTSVKVSCKASGFTFTSSAVQWVRQARGQRLEWIGWIVVGSGNTNYAQKFQERVTITRDMSTSTAYMELSSLRSEDTAVYYCAAPACSSTSCYDGFDIWGQGTMVTVSS
# VL: not shown
# B3: AB-009251 (antibody, V domains shown)
# V domain 1: QVQLVQSGAEVKKPGASVKVSCKTSGYTFTTFYIHWVRQVPGQGLEWMGIINPDGGSTNYAQEFQARVTMTTDTSTSTAYMELSSLRFEDTAVFYCATSLGAPPGLSPRTGPQRRGPPGFDFWGQGTLITVSA
# V domain 2: QSVLTQPPSVSGAPGQRVTISCTGSSSNIGAGYDVHWYQQLPGTAPKLLIFDNNNRPSGVPYRFSGSRSGTSASLAITGLQPEDEADYYCQSYDSSLSGRVFGGGTRVTVL
# B4: AB-009710 (antibody, V domains shown)
# VH: LVQLIQSGAEVVKPGSSVKVSCTASGGSYSSYTLSWVRQAPGQGVEWLGRISPVLNTTYYAQKLEGRVTMTADESTSTVYMQLSSLRSEDTAVYYCARLASMNGVDIWGQGTSVTVSS
# VL: EIVLTQSPGTLSLSPGERATLSCRASQSVYGSYLAWYQQKPGQAPRLLIYGGSSRATGIPDRFSGSGSGTDFTLTISRLEPEDFAVYYCHQYGTSRYSFGQGTKLDIK
# B5: AB-009106 (antibody, V domains shown)
# VH: QVQLAQSGAEVKRPGASVKVSCKASGFDLTTYGVGWVRQAPGQGLEWMGWISGSSGDTHYAQQFQDRVTMTTDTPTSTAYMELRSLRSDDTAVYYCVRENIAHYGSRTFLVRYYRGMDVWGQGTTVTVAS
# VL: QSALTQPASVSGSPGQSITITCTGSSSDIGGFDFVSWYQQYPGKAPKLVISEVTNRPSGVSIRFSGSKSGNTASLTISGLQAEDEADYYCSSYASSYPTTNTRVFGTGTKVTVL
# B6: AB-009283 (antibody, V domains shown)
# VH: EVQLVESGGGLIQPGGSLRLSCAASGFTVSSNYMSWVRQAPGKGLEWVSVIYSGGSTYYADSVKGRFTISRDNSKNTLYLQMNSLRAEDTAVYYCATSSFDYYYYFMDVWGKGTTVTVSS
# VL: SYELTQPPSVSVSPGQTASITCSGDKLGDKYACWYHQKPGQSPVLVIYQDTKRPSGIPERFSASNSGNTATLTISGTQALDEADYYCQAWDSSIVVFGGGTKLTVL
# B7: AB-009610 (antibody, V domains shown)
# VH: QVQLVQSGAEVKKPGSSVKVSCKASGGTFSNYAISWVRQAPGQGLEWMGRIIPILGIANYAQKFQGRVTITADKSTSTAYMELSSLRSEDTAVYYCATTPYYYDSSGYYLDYWGQGTLVTVSS
# VL: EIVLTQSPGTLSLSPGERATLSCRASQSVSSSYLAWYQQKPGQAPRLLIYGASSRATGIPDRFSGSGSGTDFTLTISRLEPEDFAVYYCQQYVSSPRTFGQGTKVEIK
# B8: AB-009226 (antibody, V domains shown)
# VH: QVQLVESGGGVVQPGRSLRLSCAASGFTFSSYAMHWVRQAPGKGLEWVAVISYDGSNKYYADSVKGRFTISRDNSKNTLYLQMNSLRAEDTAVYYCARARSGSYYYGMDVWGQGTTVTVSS
# VL: QSALTQPASVSGSPGQSITISCTGTSSDVGGYNYVSWYQQHPGKAPKLMIYEVSNRPSGVSNRFSGSKSGNTASLTISGLQAEDEADYYCSSYTSSSTLYVFGTGTKVTVL
# B9: AB-009631 (antibody, V domains shown)
# VH: EVQLVESGGGLVQPGGSLRLSCAASGFNFSFYWMSWVRQAPGKGLEWVANIKQDGSEKYYVDSVKGRFTISRDNAKNSLYLQMNSLRAEDTAVYYCARLSGGSWYFDYWGQGTLVTVSS
# VL: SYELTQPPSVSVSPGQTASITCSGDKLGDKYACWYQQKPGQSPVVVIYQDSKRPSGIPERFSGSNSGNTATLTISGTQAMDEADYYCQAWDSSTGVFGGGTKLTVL
# B10: AB-009676 (antibody, V domains shown)
# VH: QVQLQQWGAGLLKPSETLSLTCAVYGGSFSGYYWSWIRQPPGKGLEWIGEINHSGSTNYNPSLKSRVTISVDTSKNQFSLKLSSVTAADTAVYYCARLSRQWLVRPHIYYFDYWGQGTLVTVSS
# VL: DIQMTQSPSTLSASVGDRVTITCRASQSVSSYLNWYQQKPGKAPKLLIYAASSLQSGVPSRFSGSGSGTDFTLTISSLQPEDFATYFCQQSYSTPRTFGQGTKLEIK
# B11: AB-009291 (antibody, V domains shown)
# VH: EVHLLESGGGLVQPGGSLRLSCAASGFTFTTYAMFWVRQAPGKGLEWVSAINAGGAKTHYADSVRGRFTISRDNSKSTLYLHMDRLRVGDTAIYYCAKVPSYIYDSRDDYLDFWGQGTLVTVSS
# VL: EIVLTQSPATLSLSPGERATLSCRASQSVSSYLAWYQQRPGQAPRLLIYDASSRATGIPVRFSGSGSGTDFTLTISSLEPEDFAVYYCQQRSDWPLLTFGGGTKVEIK
# B12: AB-009271 (antibody, V domains shown)
# VH: EVQLVESGGGLIQPGGSLRLSCAASGFIVSSNYMSWVRQAPGKGLEWVSVIYSGGSTYYADSVKGRFTISRDNSKNTLYLQMNSLRAEDTAVYYCARDYGDFYFDYWGQGTLVTVSS
# VL: EIVMTQSPATLSVSPGERATLSCRASQSVSSNLAWYQQKPGQAPRLLIYGASTRATGIPARFSGSGSGTEFTLTISSLQSEDFAVYYCQQYYNWPRTFGQGTKVEIK
# B13: AB-009613 (antibody, V domains shown)
# VH: EVQLVESGGGLIQPGGSLRLSCAASGFTVSSNYMSWVRQAPGKGLEWVSVIYSGGSTYYADSVKGRFTISRDNSKNTLYLQMNSLRAEDTAVYYCARDYGDFYFDYWGQGTLVTVSS
# VL: not shown
# B14: AB-009363 (antibody, V domains shown)
# VH: EVQLLESGGGLVQPGGSLRLSCAASGFTFSSFAMTWIRQAPGKGLEWISAIGGDGGATYYVDSIKGRFTISRDNSKNTVYLHMNGLRVEDTAVYYCATPSPTRYSWGQGTLVTVSS
# VL: DIVMTQSPDSLAVSLGERATLNCKSSQSVLYSSNNKNYLAWYQQKPGQPPKLLFYWASTRQSGVPDRFSGSGSGTDFTLTISSLQAEDGAVYYCQQYHKTPHTFGQGTKLEIK
# B15: AB-009214 (antibody, V domains shown)
# VH: QVQLVESGGGVVQPGRSLRLSCAASGFTFSSYGMHWVRQAPGKGLEWVAVIWYDGSNKYYADSVKGRFTISRDNSKNTLYLQMNSLRAEDTAVYYCARDEPPSYYGSGSRFDYWGQGTLVTVSS
# VL: SYELTQPPSVSVSPGQTARITCSGDALPKKYAYWYQQKSGQAPVLVIYEDSKRPSGIPERFSGSSSGTMATLTISGAQVEDEADYYCYSTDSSGNHWVFGGGTKLTVL
# Experiments:
# SARS-CoV-2 S2 protein = SARS-CoV-2 S2 protein (SARS-CoV-2, UniProt P0DTC2 686-1213)
# [1] = biological target: SARS-CoV-2 spike S1 protein (SARS-CoV-2, UniProt P0DTC2 16-685)
# [2] = biological target: SARS-CoV-2 spike receptor-binding domain (RBD) (SARS-CoV-2, UniProt P0DTC2 319-541)
# [3] = biological target: SARS-CoV-2 spike receptor-binding domain (RBD) (SARS-CoV-2, UniProt P0DTC2 319-541); remark: listed apart in the source
# [4] = biological target: SARS-CoV-2 spike S1 protein (SARS-CoV-2, UniProt P0DTC2 16-685); remark: listed apart in the source
# [5] = biological target: SARS-CoV-2 Spike (S) trimer (SARS-CoV-2, UniProt P0DTC2 16-1213); assay: ELISA on coated S trimer, 1:50
# [6] = biological target: SARS-CoV-2 spike S2 protein (SARS-CoV-2, UniProt P0DTC2 686-1213)
binder,measurement,setting,value
B1,Kd,SARS-CoV-2 S2 protein,6.87 nM
same,koff,SARS-CoV-2 S2 protein,0.000148 s⁻¹
same,kon,SARS-CoV-2 S2 protein,21500 M⁻¹ s⁻¹
B2,Kd,[1],13.5 nM
same,koff,[1],0.0069 s⁻¹
same,kon,[1],512000 M⁻¹ s⁻¹
same,Kd,[2],2.16 nM
same,koff,[2],0.00212 s⁻¹
same,kon,[2],980000 M⁻¹ s⁻¹
B3,Kd,[3],9.31 nM
same,koff,[3],0.000469 s⁻¹
same,kon,[3],50400 M⁻¹ s⁻¹
same,Kd,[4],48.1 nM
same,koff,[4],0.000544 s⁻¹
same,kon,[4],11300 M⁻¹ s⁻¹
same,OD 450 nm,[5],0.886 OD
B4,Kd,SARS-CoV-2 S2 protein,46.8 nM
same,koff,SARS-CoV-2 S2 protein,0.000591 s⁻¹
same,kon,SARS-CoV-2 S2 protein,12600 M⁻¹ s⁻¹
B5,Kd,[6],0.0413 nM
same,koff,[6],2.63e-07 s⁻¹
same,kon,[6],6370 M⁻¹ s⁻¹
same,OD 450 nm,[5],0.1 OD
B6,Kd,SARS-CoV-2 S2 protein,22.7 nM
same,koff,SARS-CoV-2 S2 protein,0.000319 s⁻¹
same,kon,SARS-CoV-2 S2 protein,14100 M⁻¹ s⁻¹
B7,Kd,[1],111 nM
same,koff,[1],0.00456 s⁻¹
same,kon,[1],41100 M⁻¹ s⁻¹
same,Kd,[2],21.6 nM
same,koff,[2],0.00107 s⁻¹
same,kon,[2],49500 M⁻¹ s⁻¹
B8,Kd,[6],27.9 nM
same,koff,[6],0.000783 s⁻¹
same,kon,[6],28100 M⁻¹ s⁻¹
same,OD 450 nm,[5],2.33 OD
B9,Kd,SARS-CoV-2 S2 protein,0.0273 nM
same,koff,SARS-CoV-2 S2 protein,3.31e-07 s⁻¹
same,kon,SARS-CoV-2 S2 protein,12100 M⁻¹ s⁻¹
B10,Kd,SARS-CoV-2 S2 protein,0.0456 nM
same,koff,SARS-CoV-2 S2 protein,3.12e-07 s⁻¹
same,kon,SARS-CoV-2 S2 protein,6840 M⁻¹ s⁻¹
B11,Kd,[6],0.0174 nM
same,koff,[6],3.28e-07 s⁻¹
same,kon,[6],18900 M⁻¹ s⁻¹
same,OD 450 nm,[5],2.26 OD
B12,Kd,[1],55.4 nM
same,koff,[1],0.0042 s⁻¹
same,kon,[1],75900 M⁻¹ s⁻¹
same,Kd,[2],15.1 nM
same,koff,[2],0.00141 s⁻¹
same,kon,[2],93200 M⁻¹ s⁻¹
B13,Kd,[1],16.1 nM
same,koff,[1],0.00102 s⁻¹
same,kon,[1],63600 M⁻¹ s⁻¹
same,Kd,[2],4.26 nM
same,koff,[2],0.000313 s⁻¹
same,kon,[2],73400 M⁻¹ s⁻¹
B14,Kd,[6],192 nM
same,koff,[6],0.0016 s⁻¹
same,kon,[6],8330 M⁻¹ s⁻¹
same,OD 450 nm,[5],2.94 OD
B15,Kd,[6],23.2 nM
same,OD 450 nm,[5],0.691 OD
